{
  "source": "paper PMC4017264",
  "about": "(Molecular Cell, 2014)",
  "system": "endogenous OTULIN",
  "assay": "coimmunoprecipitation of endogenous OTULIN with tagged HOIP/HOIL-1",
  "type": "cell-based",
  "conditions": "tagged HOIP/HOIL-1 constructs, HEK293T or U2OS/NOD2 cells, western blot",
  "protocol": "Transfected HEK293T or U2OS and NOD2 cells were lysed in the presence of protease and phosphatase inhibitors. Clarified lysates were incubated overnight with anti-V5 and anti-HA-agarose resin. […]\nsiOTULIN: […], siMM […]\nImmunoprecipitation of HOIP-V5 and HA-OTULIN\nHEK293T or U2OS/NOD2 cells were transfected as indicated. The cells were lysed in IP buffer buffer (25 mM HEPES pH 7.4, 150 mM KCl, 2 mM MgCl2, 1 mM EGTA, 0.5% (v/v) Triton X-100) supplemented with 5 mM NEM (Sigma-Aldrich), cOmplete protease inhibitor cocktail (Roche) and PhosSTOP\n(Roche). After 30 minutes on ice, the lysates were cleared by centrifugation and incubated overnight at 4 °C with anti-V5-agarose resin or anti-HA-agarose resin. The beads were washed four times in ice-cold IP buffer and the precipitated material was eluted with 0.2 M glycine, pH 2.5. […]",
  "data": [
    {"molecule": "N-terminal 185 amino acids (aa) spanning the PUB domain of HOIP: HOIP truncation (protein, UniProt Q96EP0 1-185, looked up, fragment) MPGEEEERAFLVAREELASALRRDSGQAFSLEQLRPLLASSLPLAARYLQLDAARLVRCNAHGEPRNYLNTLSTALNILEKYGRNLLSPQRPRYWRGVKFNNPVFRSTVDAVQGGRDVLRLYGYTEEQPDGLSFPEGQEEPDEHQVATVTLEVLLLRTELSLLLQNTHPRQQALEQLLEDKVEDD", "values": [
      {"measurement": "coimmunoprecipitation of endogenous OTULIN (in words)", "value": "sufficient to coimmunoprecipitate endogenous OTULIN"}
    ]},
    {"molecule": "HOIL-1: epitope-tagged HOIL-1, LUBAC component (protein) MDEKTKKAEEMALSLTRAVAGGDEQVAMKCAIWLAEQRVPLSVQLKPEVSPTQDIRLWVSVEDAQMHTVTIWLTVRPDMTVASLKDMVFLDYGFPPVLQQWVIGQRLARDQETLHSHGVRQNGDSAYLYLLSARNTSLNPQELQRERQLRMLEDLGFKDLTLQPRGPLEPGPPKPGVPQEPGRGQPDAVPEPPPVGWQCPGCTFINKPTRPGCEMCCRARPEAYQVPASYQPDEEERARLAGEEEALRQYQQRKQQQQEGNYLQHVQLDQRSLVLNTEPAECPVCYSVLAPGEAVVLRECLHTFCRECLQGTIRNSQEAEVSCPFIDNTYSCSGKLLEREIKALLTPEDYQRFLDLGISIAENRSAFSYHCKTPDCKGWCFFEDDVNEFTCPVCFHVNCLLCKAIHEQMNCKEYQEDLALRAQNDVAARQTTEMLKVMLQQGEAMRCPQCQIVVQKKDGCDWIRCTVCHTEICWVTKGPRWGPGGPGDTSGGCRCRVNGIPCHPSCQNCH", "values": [
      {"measurement": "coimmunoprecipitation of endogenous OTULIN (in words)", "value": "OTULIN interacts with HOIP but not HOIL-1"}
    ]},
    {"molecule": "aa 1–436: HOIP construct aa 1–436, also including B box and NZF domains (protein, UniProt Q96EP0 1-436, looked up, fragment) MPGEEEERAFLVAREELASALRRDSGQAFSLEQLRPLLASSLPLAARYLQLDAARLVRCNAHGEPRNYLNTLSTALNILEKYGRNLLSPQRPRYWRGVKFNNPVFRSTVDAVQGGRDVLRLYGYTEEQPDGLSFPEGQEEPDEHQVATVTLEVLLLRTELSLLLQNTHPRQQALEQLLEDKVEDDMLQLSEFDPLLREIAPGPLTTPSVPGSTPGPCFLCGSAPGTLHCPSCKQALCPACDHLFHGHPSRAHHLRQTLPGVLQGTHLSPSLPASAQPRPQSTSLLALGDSSLSSPNPASAHLPWHCAACAMLNEPWAVLCVACDRPRGCKGLGLGTEGPQGTGGLEPDLARGRWACQSCTFENEAAAVLCSICERPRLAQPPSLVVDSRDAGICLQPLQQGDALLASAQSQVWYCIHCTFCNSSPGWVCVMCNRTS", "values": [
      {"measurement": "coimmunoprecipitation of endogenous OTULIN (in words)", "value": "OTULIN interaction was increased"}
    ]},
    {"molecule": "HOIP: epitope-tagged HOIP, LUBAC E3 ligase component (protein, UniProt Q96EP0 1-1072, looked up, epitope tag) E3 ubiquitin-protein ligase …: MPGEEEERAFLVAREELASALRRDSGQAFSLEQLRPLLASSLPLAARYLQLDAARLVRCNAHGEPRNYLNTLSTALNILEKYGRNLLSPQRPRYWRGVKFNNPVFRSTVDAVQGGRDVLRLYGYTEEQPDGLSFPEGQEEPDEHQVATVTLEVLLLRTELSLLLQNTHPRQQALEQLLEDKVEDDMLQLSEFDPLLREIAPGPLTTPSVPGSTPGPCFLCGSAPGTLHCPSCKQALCPACDHLFHGHPSRAHHLRQTLPGVLQGTHLSPSLPASAQPRPQSTSLLALGDSSLSSPNPASAHLPWHCAACAMLNEPWAVLCVACDRPRGCKGLGLGTEGPQGTGGLEPDLARGRWACQSCTFENEAAAVLCSICERPRLAQPPSLVVDSRDAGICLQPLQQGDALLASAQSQVWYCIHCTFCNSSPGWVCVMCNRTSSPIPAQHAPRPYASSLEKGPPKPGPPRRLSAPLPSSCGDPEKQRQDKMREEGLQLVSMIREGEAAGACPEEIFSALQYSGTEVPLQWLRSELPYVLEMVAELAGQQDPGLGAFSCQEARRAWLDRHGNLDEAVEECVRTRRRKVQELQSLGFGPEEGSLQALFQHGGDVSRALTELQRQRLEPFRQRLWDSGPEPTPSWDGPDKQSLVRRLLAVYALPSWGRAELALSLLQETPRNYELGDVVEAVRHSQDRAFLRRLLAQECAVCGWALPHNRMQALTSCECTICPDCFRQHFTIALKEKHITDMVCPACGRPDLTDDTQLLSYFSTLDIQLRESLEPDAYALFHKKLTEGVLMRDPKFLWCAQCSFGFIYEREQLEATCPQCHQTFCVRCKRQWEEQHRGRSCEDFQNWKRMNDPEYQAQGLAMYLQENGIDCPKCKFSYALARGGCMHFHCTQCRHQFCSGCYNAFYAKNKCPEPNCRVKKSLHGHHPRDCLFYLRDWTALRLQKLLQDNNVMFNTEPPAGARAVPGGGCRVIEQKEVPNGLRDEACGKETPAGYAGLCQAHYKEYLVSLINAHSLDPATLYEVEELETATERYLHVRPQPLAGEDPPAYQARLLQKLTEEVPLGQSIPRRRK", "values": [
      {"measurement": "coimmunoprecipitation of endogenous OTULIN (in words)", "value": "copurified endogenous OTULIN"},
      {"measurement": "coimmunoprecipitation of endogenous OTULIN (in words)", "setting": "listed as wild-type HOIP", "value": "coprecipitated OTULIN"}
    ]},
    {"molecule": "N102D: V5-tagged HOIP with point mutation N102D in the PUB binding site (protein, UniProt Q96EP0 1-1072, looked up, variant N102D, V5 tag) E3 ubiquitin-protein ligase …: MPGEEEERAFLVAREELASALRRDSGQAFSLEQLRPLLASSLPLAARYLQLDAARLVRCNAHGEPRNYLNTLSTALNILEKYGRNLLSPQRPRYWRGVKFNDPVFRSTVDAVQGGRDVLRLYGYTEEQPDGLSFPEGQEEPDEHQVATVTLEVLLLRTELSLLLQNTHPRQQALEQLLEDKVEDDMLQLSEFDPLLREIAPGPLTTPSVPGSTPGPCFLCGSAPGTLHCPSCKQALCPACDHLFHGHPSRAHHLRQTLPGVLQGTHLSPSLPASAQPRPQSTSLLALGDSSLSSPNPASAHLPWHCAACAMLNEPWAVLCVACDRPRGCKGLGLGTEGPQGTGGLEPDLARGRWACQSCTFENEAAAVLCSICERPRLAQPPSLVVDSRDAGICLQPLQQGDALLASAQSQVWYCIHCTFCNSSPGWVCVMCNRTSSPIPAQHAPRPYASSLEKGPPKPGPPRRLSAPLPSSCGDPEKQRQDKMREEGLQLVSMIREGEAAGACPEEIFSALQYSGTEVPLQWLRSELPYVLEMVAELAGQQDPGLGAFSCQEARRAWLDRHGNLDEAVEECVRTRRRKVQELQSLGFGPEEGSLQALFQHGGDVSRALTELQRQRLEPFRQRLWDSGPEPTPSWDGPDKQSLVRRLLAVYALPSWGRAELALSLLQETPRNYELGDVVEAVRHSQDRAFLRRLLAQECAVCGWALPHNRMQALTSCECTICPDCFRQHFTIALKEKHITDMVCPACGRPDLTDDTQLLSYFSTLDIQLRESLEPDAYALFHKKLTEGVLMRDPKFLWCAQCSFGFIYEREQLEATCPQCHQTFCVRCKRQWEEQHRGRSCEDFQNWKRMNDPEYQAQGLAMYLQENGIDCPKCKFSYALARGGCMHFHCTQCRHQFCSGCYNAFYAKNKCPEPNCRVKKSLHGHHPRDCLFYLRDWTALRLQKLLQDNNVMFNTEPPAGARAVPGGGCRVIEQKEVPNGLRDEACGKETPAGYAGLCQAHYKEYLVSLINAHSLDPATLYEVEELETATERYLHVRPQPLAGEDPPAYQARLLQKLTEEVPLGQSIPRRRK", "values": [
      {"measurement": "coimmunoprecipitation of endogenous OTULIN (in words)", "value": "abrogated OTULIN binding"}
    ]},
    {"molecule": "Y82A: V5-tagged HOIP with point mutation Y82A in the PUB binding site (protein, left off: V5, end not stated, kept) MPGEEEERAFLVAREELASALRRDSGQAFSLEQLRPLLASSLPLAARYLQLDAARLVRCNAHGEPRNYLNTLSTALNILEKAGRNLLSPQRPRYWRGVKFNNPVFRSTVDAVQGGRDVLRLYGYTEEQPDGLSFPEGQEEPDEHQVATVTLEVLLLRTELSLLLQNTHPRQQALEQLLEDKVEDDMLQLSEFDPLLREIAPGPLTTPSVPGSTPGPCFLCGSAPGTLHCPSCKQALCPACDHLFHGHPSRAHHLRQTLPGVLQGTHLSPSLPASAQPRPQSTSLLALGDSSLSSPNPASAHLPWHCAACAMLNEPWAVLCVACDRPRGCKGLGLGTEGPQGTGGLEPDLARGRWACQSCTFENEAAAVLCSICERPRLAQPPSLVVDSRDAGICLQPLQQGDALLASAQSQVWYCIHCTFCNSSPGWVCVMCNRTSSPIPAQHAPRPYASSLEKGPPKPGPPRRLSAPLPSSCGDPEKQRQDKMREEGLQLVSMIREGEAAGACPEEIFSALQYSGTEVPLQWLRSELPYVLEMVAELAGQQDPGLGAFSCQEARRAWLDRHGNLDEAVEECVRTRRRKVQELQSLGFGPEEGSLQALFQHGGDVSRALTELQRQRLEPFRQRLWDSGPEPTPSWDGPDKQSLVRRLLAVYALPSWGRAELALSLLQETPRNYELGDVVEAVRHSQDRAFLRRLLAQECAVCGWALPHNRMQALTSCECTICPDCFRQHFTIALKEKHITDMVCPACGRPDLTDDTQLLSYFSTLDIQLRESLEPDAYALFHKKLTEGVLMRDPKFLWCAQCSFGFIYEREQLEATCPQCHQTFCVRCKRQWEEQHRGRSCEDFQNWKRMNDPEYQAQGLAMYLQENGIDCPKCKFSYALARGGCMHFHCTQCRHQFCSGCYNAFYAKNKCPEPNCRVKKSLHGHHPRDCLFYLRDWTALRLQKLLQDNNVMFNTEPPAGARAVPGGGCRVIEQKEVPNGLRDEACGKETPAGYAGLCQAHYKEYLVSLINAHSLDPATLYEVEELETATERYLHVRPQPLAGEDPPAYQARLLQKLTEEVPLGQSIPRRRK", "values": [
      {"measurement": "coimmunoprecipitation of endogenous OTULIN (in words)", "value": "abrogated OTULIN binding"}
    ]}
  ]
}
